Earlier results in PMC11677424, “Early-Stage IM Treatment with the Host-Derived Immunostimulant CPDI-02 Increases Curative Protection of Healthy Outbred Mice Against Subcutaneous Infection with Community-Acquired Methicillin-Resistant Staphylococcus aureus USA300” (Pharmaceutics, 2024).

Key:
[1] = tested on: primary human mononuclear phagocytes (MPs); conditions: primary human MPs; cited from earlier work
Description: (§1) Complement Peptide-Derived Immunostimulant-02 (CPDI-02) (formerly EP67) is a novel, second-generation host-derived decapeptide agonist of […] (C5) Receptor 1 (C5aR1/C5a1R/CD88), which is based on the C-terminal pharmacophore of human Complement Peptide C5a (hC5a).

[2] = tested on: primary human neutrophils (NPs); conditions: cited from earlier work
Description: as §1

B1: hC5a: human Complement Peptide C5a, the parent molecule of CPDI-02 (protein, UniProt P01031 678-751, looked up)
C5a anaphylatoxin: TLQKKIEEIAAKYKHSVVKKCCYDGACVNNDETCEQRAARISLGPRCIKAFTECCVVASQLRANISHKDMQLGR
modifications: C5a anaphylatoxin
With B1 as the molecule, how does the EC50 [1] read?
Its EC50 is about 7 nM.

What about the EC50 [2] of the same molecule?
The EC50 was about 7 nM.
